Residue numbers refer to the chain shown, from its start. Names and notes keep the numbering of the source.
T1: RfxCas13d (CasRx), nuclease-dead (Ruminococcus flavefaciens, R239A;H244A;R858A;H863A)
T1 chain: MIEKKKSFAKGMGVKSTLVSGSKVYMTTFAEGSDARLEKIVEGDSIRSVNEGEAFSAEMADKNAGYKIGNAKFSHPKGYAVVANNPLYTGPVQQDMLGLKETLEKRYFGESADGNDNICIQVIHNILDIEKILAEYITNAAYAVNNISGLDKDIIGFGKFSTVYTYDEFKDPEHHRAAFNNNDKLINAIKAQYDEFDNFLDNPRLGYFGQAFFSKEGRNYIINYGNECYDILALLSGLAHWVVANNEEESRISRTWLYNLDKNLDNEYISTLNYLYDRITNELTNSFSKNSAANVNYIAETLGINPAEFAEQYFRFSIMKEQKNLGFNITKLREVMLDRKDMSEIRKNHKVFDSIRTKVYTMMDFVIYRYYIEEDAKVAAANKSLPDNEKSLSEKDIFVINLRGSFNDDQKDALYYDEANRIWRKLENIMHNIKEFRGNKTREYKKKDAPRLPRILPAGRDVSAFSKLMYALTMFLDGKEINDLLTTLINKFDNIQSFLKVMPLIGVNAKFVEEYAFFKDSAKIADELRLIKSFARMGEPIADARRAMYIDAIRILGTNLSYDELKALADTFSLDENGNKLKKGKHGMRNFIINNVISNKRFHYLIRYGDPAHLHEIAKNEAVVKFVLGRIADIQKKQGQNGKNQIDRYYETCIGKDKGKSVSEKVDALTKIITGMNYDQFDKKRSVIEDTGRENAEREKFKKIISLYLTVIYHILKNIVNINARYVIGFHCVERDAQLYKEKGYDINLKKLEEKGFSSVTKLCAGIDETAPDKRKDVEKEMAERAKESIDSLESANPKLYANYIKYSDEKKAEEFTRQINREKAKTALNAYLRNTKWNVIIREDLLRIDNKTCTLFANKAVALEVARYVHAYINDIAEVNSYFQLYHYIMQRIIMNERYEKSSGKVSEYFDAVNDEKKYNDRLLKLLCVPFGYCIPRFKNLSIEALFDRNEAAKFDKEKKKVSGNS

T2: dEsCas13d (Eubacterium siraeum, UniProt B0MS50 1-954, R295A;H300A;R849A;H854A)
T2 sequence: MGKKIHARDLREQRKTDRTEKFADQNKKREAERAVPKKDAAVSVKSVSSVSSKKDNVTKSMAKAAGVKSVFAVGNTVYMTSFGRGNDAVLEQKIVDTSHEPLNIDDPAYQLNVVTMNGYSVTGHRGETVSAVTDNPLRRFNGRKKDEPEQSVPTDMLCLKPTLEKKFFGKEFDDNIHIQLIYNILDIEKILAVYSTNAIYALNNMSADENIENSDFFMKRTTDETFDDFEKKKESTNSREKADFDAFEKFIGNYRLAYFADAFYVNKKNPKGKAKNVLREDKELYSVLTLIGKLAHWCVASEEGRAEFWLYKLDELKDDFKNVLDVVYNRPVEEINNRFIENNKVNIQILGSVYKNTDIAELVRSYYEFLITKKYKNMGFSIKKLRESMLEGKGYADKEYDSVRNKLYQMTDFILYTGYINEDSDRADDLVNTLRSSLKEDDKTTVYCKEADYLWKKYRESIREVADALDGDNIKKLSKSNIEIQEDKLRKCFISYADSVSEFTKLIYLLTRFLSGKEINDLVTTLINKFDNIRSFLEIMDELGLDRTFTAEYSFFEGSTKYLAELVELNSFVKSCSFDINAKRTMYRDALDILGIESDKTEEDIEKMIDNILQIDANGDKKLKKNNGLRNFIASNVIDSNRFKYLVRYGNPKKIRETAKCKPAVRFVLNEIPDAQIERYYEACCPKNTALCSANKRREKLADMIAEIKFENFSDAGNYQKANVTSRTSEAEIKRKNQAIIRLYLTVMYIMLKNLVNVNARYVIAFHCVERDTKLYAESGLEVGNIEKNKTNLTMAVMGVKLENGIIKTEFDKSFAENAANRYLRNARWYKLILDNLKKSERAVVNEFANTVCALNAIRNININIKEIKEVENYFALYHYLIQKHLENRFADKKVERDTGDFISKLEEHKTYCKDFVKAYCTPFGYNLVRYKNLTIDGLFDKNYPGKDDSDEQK

B1: target 1 C4A (60-mer) (mixed)
RNA 1: AACCCCUACCAACUGGUCGGGGUUUGAAACUGAGCGGAUAACCUCUCUAUGG
RNA 2: CCACAUCUACGAAUUCGUACCAUAGAGAGGUUAUCCGAUCACCGAGAUCGGAAGAGCACA
B2: target 1 MT (60-mer) (mixed)
RNA 1: B1 RNA 1
RNA 2: B1 RNA 2 with A38C
B3: target 1 C2G (60-mer) (mixed)
RNA 1: B1 RNA 1
RNA 2: B1 RNA 2 with A38C, C40G
B4: target 1 G5U (60-mer) (mixed)
RNA 1: B1 RNA 1
RNA 2: B1 RNA 2 with G37U, A38C
B5: target 1 C7A (60-mer) (mixed)
RNA 1: B1 RNA 1
RNA 2: B1 RNA 2 with C35A, A38C
B6: target 1 A18G (60-mer) (mixed)
RNA 1: B1 RNA 1
RNA 2: B1 RNA 2 with A24G, A38C
B7: target 1 C22A (60-mer) (mixed)
RNA 1: B1 RNA 1
RNA 2: B1 RNA 2 with C20A, A38C
B8: target 1 U10G (60-mer) (mixed)
RNA 1: B1 RNA 1
RNA 2: B1 RNA 2 with U32G, A38C
B9: target 1 G15A (60-mer) (mixed)
RNA 1: B1 RNA 1
RNA 2: B1 RNA 2 with G27A, A38C
B10: target 1 A20C (60-mer) (mixed)
RNA 1: B1 RNA 1
RNA 2: B1 RNA 2 with A22C, A38C
B11: crRNA_Target 1 / U9-flanked target (ssRNA)
RNA 1: CACCCGUGCAAAAAUGCAGGGGUCUAAAACUGAGCGGAUAACCUCUCUAUGG
RNA 2: UUUUUUUUUCCAUAGAGAGGUUAUCCGCUCAUUUUUUUUU
B12: crRNA_Target 1 / MT (5'-GUA PFS) (ssRNA)
RNA 1: B11 RNA 1
RNA 2: B1 RNA 2 with A38C

Target: T1, RfxCas13d (CasRx), nuclease-dead
Test: BLI; crRNA (strand 1, pre-loaded); Mg2+; 40 mM Tris-HCl pH 7.5, 150 mM NaCl, 6 mM MgCl2, 1 mM DTT, 0.1% Tween-20, 0.2 mg/ml BSA; temperature not stated
Conditions: tags: His6-TwinStrep-SUMO cleaved; label: 3' biotin on strand 2

Molecule | Kd [nM]
B1 | ~0.132
B2 | ~0.104
B3 | ~0.109
B4 | ~1.12
B5 | ~0.175
B6 | ~0.886
B7 | ~0.291
B8 | ~0.271
B9 | ~0.119
B10 | ~0.556

target: T2, dEsCas13d; test: BLI; 6 mM Mg2+; BLI: 40 mM Tris-HCl pH 7.5, 150 mM NaCl, 6 mM MgCl2, 1 mM DTT, 0.1% Tween-20, 0.2 mg/ml BSA; RNP 25-100 nM (dRfx 25 nM only); temperature not stated; conditions: protein: recombinant; tags: 6xHis-TwinStrep-SUMO, cleaved; 22 nt crRNA-target match

Molecule | Kd [nM]
B11 | 1.6 ± 0.024

same assay, conditions: protein: recombinant; tags: 6xHis-TwinStrep-SUMO, cleaved; label: 3' biotin on target; 22 nt crRNA-target match

Molecule | Kd [nM]
B12 | 3.1 ± 0.018

system: dRfxCas13d (Ruminococcus flavefaciens); test: BLI; conditions: 6 mM Mg2+; BLI: 40 mM Tris-HCl pH 7.5, 150 mM NaCl, 6 mM MgCl2, 1 mM DTT, 0.1% Tween-20, 0.2 mg/ml BSA; RNP 25-100 nM (dRfx 25 nM only); temperature not stated

Molecule | Kd [nM]
AACCCCUACCAACUGGUCGGGGUUUGAAACUGAGCGGAUAACCUCUCUAUGG / CCACAUCUACGAAUUCGUACCAUAGAGAGGUUAUCCGAUCACCGAGAUCGGAAGAGCACA [Rfx crRNA_Target 1 / C4A] | 0.132
